The values that follow come from patent US20240327815A1 (Zymeworks, published 2024).

Assay [1] addresses T1, full length wild type SARS-CoV-2 spike glycoprotein on pseudotyped lentivirus (SARS-CoV-2, UniProt P0DTC2 14-1273). The assay can be described thus: cell-based or functional assay.
The target in assay [2] is T1, full length wild type SARS-CoV-2 spike …. The assay can be described thus: cell-based or functional assay. This is another data set of the same source.
For assay [3], the target named is WT SARS-CoV-2 spike protein, plate-coated (MSD V-Plex) (SARS-CoV-2, UniProt P0DTC2 14-1208). The assay can be described thus: MSD competition vs labelled ACE2.

B1: Bamlanivimab (antibody, V domains shown)
VH: QVQLVQSGAEVKKPGSSVKVSCKASGGTFSNYAISWVRQAPGQGLEWMGRIIPILGIANYAQKFQGRVTITADKSTSTAYMELSSLRSEDTAVYYCARGYYEARHYYYYYAMDVWGQGTAVTVSS
VL: not shown
With B1, in assay [1], the “Pseudovirus Neutralization (IC50, nM)” value turned out to be 2.29 nM. Also, the “Bmax (% inhibition)” value in assay [2] was 100%.

B2: REGN10987 (Imdevimab) (antibody, V domains shown)
VH: QVQLVESGGGVVQPGRSLRLSCAASGFTFSNYAMYWVRQAPGKGLEWVAVISYDGSNKYYADSVKGRFTISRDNSKNTLYLQMNSLRTEDTAVYYCASGSDYGDYLLVYWGQGTLVTVSS
VL: QSALTQPASVSGSPGQSITISCTGTSSDVGGYNYVSWYQQHPGKAPKLMIYDVSKRPSGVSNRFSGSKSGNTASLTISGLQSEDEADYYCNSLTSISTWVFGGGTKLTVLR
As to B2, in assay [1], the “Pseudovirus Neutralization (IC50, nM)” value was found to be 4.76 nM. Further, in assay [2], the “%-inhibition EC50 (M), pseudovirus neutralization” value came to 2.9e-09 M; the “Bmax (% inhibition)” value is 116%; the “RLU EC50 (M), pseudovirus neutralization” value came to 2.9e-09 M.

B3: Etesevimab (antibody, V domains shown)
VH: EVQLVESGGGLVQPGGSLRLSCAASGFTVSSNYMSWVRQAPGKGLEWVSVIYSGGSTFYADSVKGRFTISRDNSMNTLFLQMNSLRAEDTAVYYCARVLPMYGDYLDYWGQGTLVTVSS
VL: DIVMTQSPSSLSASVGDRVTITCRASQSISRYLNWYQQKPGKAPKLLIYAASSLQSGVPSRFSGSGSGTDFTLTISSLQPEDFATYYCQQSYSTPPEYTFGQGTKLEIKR
As for B3, the IC50 (in general, the concentration that gives 50% inhibition) in assay [3] worked out at 0.51 nM.

B4: REGN10933 (Casirivimab) (antibody, V domains shown)
VH: QVQLVESGGGLVKPGGSLRLSCAASGFTFSDYYMSWIRQAPGKGLEWVSYITYSGSTIYYADSVKGRFTISRDNAKSSLYLQMNSLRAEDTAVYYCARDRGTTMVPFDYWGQGTLVTVSS
VL: DIQMTQSPSSLSASVGDRVTITCQASQDITNYLNWYQQKPGKAPKLLIYAASNLETGVPSRFSGSGSGTDFTFTISGLQPEDIATYYCQQYDNLPLTFGGGTKVEIKR
B4: the “Pseudovirus Neutralization (IC50, nM)” value in assay [1] is 0.05 nM. Further, in assay [2], the “%-inhibition EC50 (M), pseudovirus neutralization” value was 1.1e-10 M and the “RLU EC50 (M), pseudovirus neutralization” value is 1e-10 M.
